Results reported in patent publication US20170275357A1 (Bristol-Myers Squibb, published 2017).
Like-named read-outs stand apart in the source and are kept apart here.

T1: human IL-17F homodimer (human, UniProt Q96PD4 31-163)
T1 sequence: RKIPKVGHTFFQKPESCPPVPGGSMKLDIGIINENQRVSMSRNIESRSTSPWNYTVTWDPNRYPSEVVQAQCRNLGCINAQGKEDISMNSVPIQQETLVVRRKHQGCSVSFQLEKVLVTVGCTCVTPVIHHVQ

B1: humanized anti-human IL-17A/F antibody 339-134 mAb IgG1.1 (antibody, V domains shown)
VH: QVQLVQSGAEVKKPGASVKVSCKASGYTFNEYTMHWVKQAPGQRLEWMGGINPNSGGVSYNQNFKGKATLTVDTSASTAYMELSSLRSEDTAVYYCARGGDGYYTNYFDIDYWGQGTTVTVSS
VL: DIQMTQSPSSLSASVGDRVTITCSASSSVNYMHWYQQKPGKVPKLLIYDTSKLASGVPSRFSGSGSGTDFTLTISSLQPEDVATYYCQQWNSHPLTFGQGTKLEIKR
notes: IgG1.1/kappa; also called MVC978/MVC717; humanized parent
B2: Fab derived from the IL-17 arms of biAb3 (Lead Fab A3185F) (Fab, V domains shown)
VH: B1 VH
VL: not shown
notes: Expressed periplasmically in E. coli, purified by IMAC (tag not described); also called humanized lead Fab; biAb Fab
B3: C/DVCV1 IgG1.1 (bispecific antibody)
heavy: QIQLVQSGPELKKPGETVEISCKASGYTFTDYLIFWVKQAPGKGLNWMGWINTETVEPTYADDFKGRFAFSLETSASTAHLLINNLKKEDTSTYFCARVPHLGPYYYAMDYWGQGTSVTVSSASTKGPSVFPLAPSSKSTSGGTAALGCLVKDYFPEPVTVSWNSGALTSGVHTFPAVLQSSGLYSLSSVVTVPSSSLGTQTYICNVNHKPSNTKVDKKVEPKSCGGGGSGGGGSQVTLKESGPGILQPSQTLSLTCSFSGFSLSTSGMGVGWIRQPSGKGLEWLANIWWDDDKRYNPALKSRLTISKDTSSNQVFLKIASVDTADTATYYCARIDYDYDRGAYHVMDYWGQGTSVTVSSEPKSSDKTHTCPPCPAPEAEGAPSVFLFPPKPKDTLMISRTPEVTCVVVDVSHEDPEVKFNWYVDGVEVHNAKTKPREEQYNSTYRVVSVLTVLHQDWLNGKEYKCKVSNKALPSSIEKTISKAKGQPREPQVYTLPPSRDELTKNQVSLTCLVKGFYPSDIAVEWESNGQPENNYKTTPPVLDSDGSFFLYSKLTVDKSRWQQGNVFSCSVMHEALHNHYTQKSLSLSPGK
light: DIVLKQSPASLGVALGQRATISCRASKSVSTSDFSYMHWYQQKPGQPPELLIYLASNLESGVPARFSGSGSGTDFTLNIHPVEEEDAATYYCQHSREFPPTFGAGTKLELKRTVAAPSVFIFPPSDEQLKSGTASVVCLLNNFYPREAKVQWKVDNALQSGNSQESVTEQDSKDSTYSLSSTLTLSKADYEKHKVYACEVTHQGLSSPVTKSFNRGECGGGGSGGGGSDIQMTQSPASLSVSVGETVTITCRTSENIFSNLAWYQQKQGKSPQLLVYDATNLADGVPSRFSGSGSGTQYSLKINSLQSEDFGTYYCQHFWYTPWTFGGGTKLEIK
B4: wild-type IL-23 (His-tagged p19 / non-tagged p40) (ligand, human)
chain 1: RAVPGGSSPAWTQCQQLSQKLCTLAWSAHPLVGHMDLREEGDEETTNDVPHIQCGDGCDPQGLRDNSQFCLQRIHQGLIFYEKLLGSDIFTGEPSLLPDSPVGQLHASLLGLSQLLQPEGHHWETQQIPSLSPSQPWQRLLLRFKILRSLQAFVAVAARVFAHGAATLSP
chain 2: IWELKKDVYVVELDWYPDAPGEMVVLTCDTPEEDGITWTLDQSSEVLGSGKTLTIQVKEFGDAGQYTCHKGGEVLSHSLLLLHKKEDGIWSTDILKDQKEPKNKTFLRCEAKNYSGRFTCWWLTTISTDLTFSVKSSRGSSDPQGVTCGAATLSAERVRGDNKEYEYSVECQEDSACPAAEESLPIEVMVDAVHKLKYENYTSSFFIRDIIKPDPPKNLQLKPLKNSRQVEVSWEYPDTWSTPHSYFSLTFCVQVQGKSKREKKDRVFTDKTSATVICRKNASISVRAQDRYYSSSWSEWASVPCS
B5: hIL-23R-Fc (Fc fusion, human, UniProt Q5VWK5 24-353, looked up)
chain: GITNINCSGHIWVEPATIFKMGMNISIYCQAAIKNCQPRKLHFYKNGIKERFQITRINKTTARLWYKNFLEPHASMYCTAECPKHFQETLICGKDISSGYPPDIPDEVTCVIYEYSGNMTCTWNAGKLTYIDTKYVVHVKSLETEEEQQYLTSSYINISTDSLQGGKKYLVWVQAANALGMEESKQLQIHLDDIVIPSAAVISRAETINATVPKTIIYWDSQTTIEKVSCEMRYKATTNQTWNVKEFDTNFTYVQQSEFYLEPNIKYVFQVRCQETGKRYWQPWSSLFFHKTPETVPQVTSKAFQHDTWNSGLTVASISTGHLTSDNRGD
notes: Bought from R&D Systems; also called human IL-23 receptor; p19 specific IL-23 receptor; not shown: Fc part of the commercial fusion (R&D Systems) not described

Legend:
human IL-17A homodimer [1] = target: T2, human IL-17A homodimer (human, UniProt Q16552 24-155); assay: cell-based or functional assay
[2] = target: T3, human IL-17A/F heterodimer (human, UniProt Q16552 24-155; Q96PD4 31-163); assay: cell-based or functional assay
human IL-17F homodimer [3] = target: T1, human IL-17F homodimer; assay: cell-based or functional assay
human IL-17A homodimer [4] = target: T2, human IL-17A homodimer; assay: cell-based or functional assay; remark: listed apart in the source
[5] = target: T3, human IL-17A/F heterodimer; assay: cell-based or functional assay; remark: listed apart in the source
human IL-17F homodimer [6] = target: T1, human IL-17F homodimer; assay: cell-based or functional assay; remark: listed apart in the source
human IL-17A homodimer [7] = target: T2, human IL-17A homodimer; assay: cell-based or functional assay; remark: listed apart in the source
[8] = target: T3, human IL-17A/F heterodimer; assay: cell-based or functional assay; remark: listed apart in the source
human IL-17F homodimer [9] = target: T1, human IL-17F homodimer; assay: cell-based or functional assay; remark: listed apart in the source
human IL-17A homodimer [10] = target: T2, human IL-17A homodimer; assay: cell-based or functional assay; remark: listed apart in the source
[11] = target: T3, human IL-17A/F heterodimer; assay: cell-based or functional assay; remark: listed apart in the source
human IL-17F homodimer [12] = target: T1, human IL-17F homodimer; assay: cell-based or functional assay; remark: listed apart in the source
human IL-17A homodimer [13] = target: T2, human IL-17A homodimer; assay: cell-based or functional assay; remark: listed apart in the source
[14] = target: T3, human IL-17A/F heterodimer; assay: cell-based or functional assay; remark: listed apart in the source
human IL-17F homodimer [15] = target: T1, human IL-17F homodimer; assay: cell-based or functional assay; remark: listed apart in the source
human IL-17A homodimer [16] = target: T2, human IL-17A homodimer; assay: cell-based or functional assay; remark: listed apart in the source
[17] = target: T3, human IL-17A/F heterodimer; assay: cell-based or functional assay; remark: listed apart in the source
human IL-17F homodimer [18] = target: T1, human IL-17F homodimer; assay: cell-based or functional assay; remark: listed apart in the source
human IL-17A homodimer [19] = target: T2, human IL-17A homodimer; assay: SPR Biacore T100, captured antibody, bivalent analyte model
[20] = target: T3, human IL-17A/F heterodimer; assay: as above
human IL-17F homodimer [21] = target: T1, human IL-17F homodimer; assay: as above
human IL-17A homodimer [22] = target: T2, human IL-17A homodimer; assay: as above; remark: listed apart in the source
[23] = target: T3, human IL-17A/F heterodimer; assay: as above; remark: listed apart in the source
human IL-17F homodimer [24] = target: T1, human IL-17F homodimer; assay: as above; remark: listed apart in the source
human IL-17F homodimer [25] = target: T1, human IL-17F homodimer; assay: X-ray co-crystal structure
human PDGF-C = human PDGF-C (human, UniProt Q9NRA1 235-345, limits assumed); assay: cell-based or functional assay
human PDGF-D = human PDGF-D (human, UniProt Q9GZP0 250-370, limits assumed); assay: cell-based or functional assay
[26] = target: human IL-23Rα/human IL-12Rβ1 on BaF3 transfectants (human, UniProt Q5VWK5 24-629; P42701 24-662); assay: cell-based or functional assay
[27] = target: B4; assay: SPR (Biacore T100): hIL-23R-Fc captured on protein A, IL-23 (purified wild-type, and wild-type expression supernatant diluted 1:5) injected 3 min; response 10 s before the end of the injection, reference subtracted

Chain of human PDGF-D (Q9GZP0 250-370 limits assumed): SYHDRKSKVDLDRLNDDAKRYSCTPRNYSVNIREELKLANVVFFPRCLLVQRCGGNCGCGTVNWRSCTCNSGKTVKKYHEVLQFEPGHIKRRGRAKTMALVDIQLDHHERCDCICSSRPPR
Chain of human PDGF-C (Q9NRA1 235-345 limits assumed): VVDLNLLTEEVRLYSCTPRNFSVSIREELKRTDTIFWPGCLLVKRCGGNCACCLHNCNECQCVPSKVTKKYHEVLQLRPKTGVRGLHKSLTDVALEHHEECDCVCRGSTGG

B1
IC50, NIH/3T3/KZ170 NF-kB luciferase reporter (human IL-17A homodimer [1]): 1.4 nM
IC50, NIH/3T3/KZ170 NF-kB luciferase reporter [2]: 0.26 nM
IC50, NIH/3T3/KZ170 NF-kB luciferase reporter (human IL-17F homodimer [3]): 0.24 nM
IC50, NIH/3T3/KZ170 NF-kB luciferase reporter (human IL-17A homodimer [4]): 1.3 nM
IC50, NIH/3T3/KZ170 NF-kB luciferase reporter [5]: 0.27 nM
IC50, NIH/3T3/KZ170 NF-kB luciferase reporter (human IL-17F homodimer [6]): 0.24 nM
IC50, G-CSF induction in primary human SAEC (human IL-17A homodimer [7]): 0.5 nM
IC50, IL-6 induction in primary human fibroblasts (HFFF) (human IL-17A homodimer [7]): 0.9 nM
IC50, G-CSF induction in primary human SAEC [8]: 1.3 nM
IC50, IL-6 induction in primary human fibroblasts (HFFF) [8]: 13 nM
IC50, G-CSF induction in primary human SAEC (human IL-17F homodimer [9]): 1.1 nM
IC50, IL-6 induction in primary human fibroblasts (HFFF) (human IL-17F homodimer [9]): 15 nM
IC50, NIH/3T3/KZ170 NF-kB luciferase reporter (human IL-17A homodimer [10]): 3 nM
IC50, NIH/3T3/KZ170 NF-kB luciferase reporter [11]: 0.9 nM
IC50, NIH/3T3/KZ170 NF-kB luciferase reporter (human IL-17F homodimer [12]): 0.4 nM
IC50, NIH/3T3/KZ170 NF-kB luciferase reporter (human IL-17A homodimer [13]): 1.2 nM
IC50, NIH/3T3/KZ170 NF-kB luciferase reporter [14]: 0.23 nM
IC50, NIH/3T3/KZ170 NF-kB luciferase reporter (human IL-17F homodimer [15]): 0.28 nM
IC50, IL-6 induction in primary human fibroblasts (HFFF) (human IL-17A homodimer [16]): 2 nM
IC50, IL-6 induction in primary human fibroblasts (HFFF) [17]: 22 nM
IC50, IL-6 induction in primary human fibroblasts (HFFF) (human IL-17F homodimer [18]): 23 nM
Kd (human IL-17A homodimer [19]): 1 nM
koff (human IL-17A homodimer [19]): 0.003 s⁻¹
kon (human IL-17A homodimer [19]): 2e+06 M⁻¹ s⁻¹
Kd [20]: 0.2 nM
koff [20]: 0.0005 s⁻¹
kon [20]: 2e+06 M⁻¹ s⁻¹
Kd (human IL-17F homodimer [21]): 0.1 nM
koff (human IL-17F homodimer [21]): 0.0002 s⁻¹
kon (human IL-17F homodimer [21]): 2e+06 M⁻¹ s⁻¹
Kd (human IL-17A homodimer [22]): 1 nM
koff (human IL-17A homodimer [22]): 0.003 s⁻¹
kon (human IL-17A homodimer [22]): 2e+06 M⁻¹ s⁻¹
Kd [23]: 0.2 nM
koff [23]: 0.0005 s⁻¹
kon [23]: 2e+06 M⁻¹ s⁻¹
Kd (human IL-17F homodimer [24]): 0.1 nM
koff (human IL-17F homodimer [24]): 0.0002 s⁻¹
kon (human IL-17F homodimer [24]): 2e+06 M⁻¹ s⁻¹

B2
binding result (human IL-17F homodimer [25]): binds

B3
IC50, NHLF proliferation (3H-thymidine) (human PDGF-C): 0.09 nM
IC50, NHLF proliferation (3H-thymidine) (human PDGF-D): 20 nM

B4
EC50, pSTAT3 in BaF3/huIL-23Ra/huIL-12Rb1 transfectants [26]: 21 pM

B5
binding result [27]: binds
